# Source: PMC10799422, “A role for the ATP-dependent DNA ligase lig E of Neisseria gonorrhoeae in biofilm formation”
# T1: Ngo-Lig E (ATP-dependent DNA ligase Lig E), mature, His-tagged (Neisseria gonorrhoeae MS11, UniProt PDB:8U6X_1 1-279)
# T1 sequence: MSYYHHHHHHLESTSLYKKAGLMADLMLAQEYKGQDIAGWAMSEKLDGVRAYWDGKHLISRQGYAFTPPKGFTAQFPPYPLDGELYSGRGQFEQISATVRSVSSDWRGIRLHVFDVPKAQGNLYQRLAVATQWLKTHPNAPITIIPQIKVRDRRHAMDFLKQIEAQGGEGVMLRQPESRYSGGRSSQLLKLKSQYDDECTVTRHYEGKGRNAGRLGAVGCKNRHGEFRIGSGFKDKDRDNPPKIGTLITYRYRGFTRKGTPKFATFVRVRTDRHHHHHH
# B1: nicked 21-mer duplex used for co-crystallization (dsDNA)
# DNA 1: ATTGCGACC
# DNA 2: CACTATCGGAA
# DNA 3: TTCCGATAGTGGGGTCGCAAT
# modifications: 5'-phosphate on CACTATCGGAA
# Target: T1, Ngo-Lig E (ATP-dependent DNA ligase Lig …)
# Assay: X-ray crystallography (2.44 A); 5 mM EDTA; enzyme-adenylate; open non-catalytic conformation, non-specific engagement of unbroken duplex, only 6 bp visible (averaged register); Crystallization: 478.7 uM protein, 1.2 molar excess DNA, 5 mM EDTA, 1 h on ice; crystals in 0.5 M potassium thiocyanate, 0.1 M Bis Tris Propane pH 8.0, 18 C
# Settings: protein: recombinant; tags: C-terminal His (N-terminal His-MBP tag cleaved by TEV); nicked duplex, 3 strands; as printed the 9-mer and 11-mer leave a 1-nt gap (C) opposite the 21-mer; blunt outer ends
binder,measurement,value
B1,binding result,binds
